{
  "source": "patent US11352401",
  "molecular_target": "HLA-A*01 (human)",
  "assay": "UV peptide-exchange ELISA; ++++ = yield >75%",
  "settings": "remark: other sources report otherwise",
  "data": [
    {"binder": "NTDNNLAVY", "note": "[… (SEQ ID NO: 164)]", "values": [
      {"measurement": "peptide exchange yield", "result": "> 75", "unit": "%"}
    ]}
  ]
}
